Like-named read-outs stand apart in the source and are kept apart here.
Assays:
Swiss 3T3 cells = test: Internalization and efflux, Swiss 3T3 cells; type: cell-based, mouse; conditions: sixty minutes / one hour post-washing
Experimental: After establishment of equilibrium after a forty minute incubation, the media surrounding the cells was removed and the cells were washed with fresh media containing no radioactivity. […] The cells were then incubated in a 0.2M acetic acid solution (pH 2.5) which caused the surface proteins (incl., GRP receptors) to denature and release all surface bound radioactive materials. After removing this buffer and washing, the cells were counted again.
To determine intracellular retention, a similar method was employed. […] FIG. 12 is a graph of results of efflux experiments using Swiss 3T3 cells with ^125I-Lys^3-BBN.

[1] = target: T1, GRP receptors on Swiss 3T3 cells (Mus musculus, UniProt P21729); test: Competitive cell binding vs 125I-Tyr4-BBN, Swiss 3T3 cells
T1 construct: endogenous in cells; host or cells: Swiss 3T3 mouse fibroblasts (whole cells)
T1 sequence (P21729 whole entry): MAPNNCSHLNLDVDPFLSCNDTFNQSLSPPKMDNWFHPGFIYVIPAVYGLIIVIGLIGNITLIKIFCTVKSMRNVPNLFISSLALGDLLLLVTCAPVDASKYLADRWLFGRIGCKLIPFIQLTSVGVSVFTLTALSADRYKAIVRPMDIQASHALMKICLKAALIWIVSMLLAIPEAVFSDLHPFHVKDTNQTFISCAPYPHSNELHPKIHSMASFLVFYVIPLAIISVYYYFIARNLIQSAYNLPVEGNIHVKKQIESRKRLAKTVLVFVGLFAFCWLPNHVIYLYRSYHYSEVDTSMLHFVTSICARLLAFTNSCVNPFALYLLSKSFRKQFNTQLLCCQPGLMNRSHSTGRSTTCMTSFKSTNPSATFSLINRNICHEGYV
Experimental: The binding affinities of the synthetic BBN derivatives were assessed for GRP receptors on Swiss 3T3 cells and, in some cases, on a variety of human cancer cell lines, that express GRP receptors. […] The cell binding assay methods used to measure the IC50's is standard and used techniques previously reported [Jensen et al., 1993; Cai et al., 1994; Cai et al., 1992]. The methods used for determining IC50's for all GRP receptor binding compounds on all cell lines was similar. The specific method used to measure IC50's on Swiss 3T3 cells is briefly described as follows:
(§1) Swiss 3T3 mouse fibroblasts are grown to confluence in 48 well microtiter plates. […] The growth media was removed, the cells were washed twice with incubation media, and incubation media was returned to the cells. ^125I-Tyr4-BBN (0.01 uCi) was added to each well in the presence of increasing concentrations of the appropriate competitive peptide. Typical concentrations of displacing peptide ranged from 10-12 to 10-5 moles of displacing ligand per well. The cells were incubated at 37° C. for forty minutes in a 95% […]/5% CO2 humidified environment. At forty minutes post initiation of the incubation, the medium was discarded, and the cells were washed twice with cold incubation media. The cells were harvested from the wells following incubation in a trypsin/EDTA solution for five minutes at 37° C. Subsequently, the radioactivity, per well, was determined and the maximum % total uptake of the radiolabeled peptide was determined and normalized to 100%.
The binding affinities of the synthetic BBN derivatives were assessed for GRP receptors on Swiss 3T3 cells, PC-3 cells and CF PAC-1 cells. The IC50's of each of derivative were determined relative to (i.e., in competition with) ^125I-Tyr^4-BBN. The cell binding assay methods used to measure the IC50's is standard and was used by techniques previously reported [Jensen et al., 1993; Cai et al., 1992; Cai et al., 1994]. The methods used for determining IC50's with all BBN analogue binding to GRP receptors present on all three cell lines were similar. The specific method used to measure IC50's on Swiss 3T3 cells, is briefly described as follows:
as §1, with “microliter” for “microtiter”, “^125I-Tyr^4-BBN” for “^125I-Tyr4-BBN”, “μCi)” for “uCi)”, “10^−12” for “10-12”, “10^−5” for “10-5”, “100%. A similar procedure was used in performing cell binding assays with both the PC-3 and CFa-PAC-1 human cancer cell lines.” for “100%.”

[2] = tested on: PC-3 human tumor xenografts; test: in vivo
Experimental: In vivo pharmacokinetic studies in human tumor bearing SCID mice. […] The xenograft models were produced by bilateral flank inoculation of 5×10^6 cells (PC-3 or MDA-MB-231 cells) per site. Four to six weeks post inoculation, palpable tumors were observed. At this point, the mice were injected with 4 μCi of the complex in […] of isotonic saline via the tail vein. The mice were euthanized and tissues and organs were excised from the animals at selected times post-injection (p.i.), including 15 minutes, 30 minutes, 1 hour, 4 hours, 24 hours, 48 hours, and 72 hours p.i. Subsequently, the tissues and organs were weighed and counted in a NaI well counter and the percent injected dose (% ID) and % ID/g of each organ or tissue calculated.
The mice were injected with 4 μCi of the complex in 100 μL of isotonic saline via the tail vein. The mice were euthanized by cervical dislocation. Tissues and organs were excised from the animals following at 1 hour, 4 hour, and 24 hours post-injection (p.i.). Subsequently, the tissues and organs were weighed and counted in a NaI well counter and the percent injected dose (% ID) and % ID/g of each organ or tissue calculated.

[3] = Biodistribution of radiometal-DOTA-BBN conjugates in CF1 normal mice; conditions: 1 hour post-injection
[4] = tested on: MDA-MB-231 human tumor xenografts;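 note: SCID mice bearing bilateral flank PC-3 or MDA-MB-231 xenografts, tail-vein dosing, organs sampled from 15 min to 72 h post-injection, radioactivity measured with NaI well counter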
[5] = target: T2, GRP receptors on PC-3 cells (Homo sapiens, UniProt P30550); test: Competitive cell binding vs 125I-Tyr4-BBN, PC-3 cells
T2 construct: two different human cancer cell lines that express GRP receptors (i.e., CF-PAC1 and PC-3 cell lines); host or cells: PC-3 human prostate cancer cells (whole cells)
T2 sequence (P30550 whole entry): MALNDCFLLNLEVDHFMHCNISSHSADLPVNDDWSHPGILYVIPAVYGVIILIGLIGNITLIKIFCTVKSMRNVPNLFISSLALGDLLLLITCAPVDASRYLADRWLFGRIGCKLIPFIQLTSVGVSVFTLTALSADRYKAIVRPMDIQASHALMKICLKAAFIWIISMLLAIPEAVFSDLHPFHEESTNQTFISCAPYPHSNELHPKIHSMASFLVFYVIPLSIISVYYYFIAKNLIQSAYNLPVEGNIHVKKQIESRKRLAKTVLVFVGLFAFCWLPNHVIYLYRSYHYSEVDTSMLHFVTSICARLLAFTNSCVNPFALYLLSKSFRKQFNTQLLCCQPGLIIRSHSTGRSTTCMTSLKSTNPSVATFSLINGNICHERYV

[6] = target: T3, GRP receptors on CF PAC-1 cells (Homo sapiens, UniProt P30550); test: Competitive cell binding vs 125I-Tyr4-BBN, CF PAC-1 cells
T3 construct: two different human cancer cell lines that express GRP receptors (i.e., CF-PAC1 and PC-3 cell lines); endogenous in cells; host or cells: CFPAC-1 human pancreatic cancer cells (whole cells)
T3 sequence (P30550 whole entry): as above

PC-3 cells = test: Internalization and efflux of In-DOTA-8-Aoc-BBN in PC-3 cells; type: cell-based, human
Experimental: Internalization and efflux studies. […] The percent of cell-associated activity as a function of time (in the incubating medium at 37° C.) was determined. The percentage radioactivity trapped in the cells was determined after removing activity bound to the surface of the cells by washing with a pH-2.5 (0.2M acetic acid and 0.5M NaCl) buffer 1, 2, 3 and 4 hours afterwards.

## CC(C)C[C@H](NC(=O)[C@H](Cc1c[nH]cn1)NC(=O)CNC(=O)[C@@H](NC(=O)[C@H](C)NC(=O)[C@H](Cc1c[nH]c2ccccc12)NC(=O)[C@H](CCC(N)=O)NC(=O)CCCCNC(=O)COC1CSCCCSCCCSCCCSC1)C(C)C)C(N)=O [105Rh-BBN-61]
Swiss 3T3 cells
  activity remaining associated with the cells: less than 10%
[1]
  IC50: 4.1 nM

## CSCC[C@H](NC(=O)[C@H](CC(C)C)NC(=O)[C@H](Cc1cnc[nH]1)NC(=O)CNC(=O)[C@@H](NC(=O)[C@H](C)NC(=O)[C@H](Cc1c[nH]c2ccccc12)NC(=O)[C@H](CCC(N)=O)NC(=O)CCCCCCCNC(=O)CN1CCN(CC(=O)O)CCN(CC(=O)O)CCN(CC(=O)O)CC1)C(C)C)C(N)=O [111In-DOTA-8-Aoc-BBN[7-14]NH2] [metal not drawn]
[2]; 1 hr
  Avg % ID, Blood: 0.92±0.58 % ID
  Avg % ID, Carcass: 13.55 ± 6.05 % ID
  Avg % ID, Liver: 1.41 ± 0.32 % ID
  Avg % ID, Lung: 0.09 ± 0.07 % ID
  Avg % ID, Pancreas: 3.49 ± 2.15 % ID
  Avg % ID, Spleen: 0.09 ± 0.07 % ID
  Avg % ID/gm, Liver: 1.34 ± 0.25 % ID/gm
  Avg % ID/gm, Lung: 0.50 ± 0.39 % ID/gm
  Avg % ID/gm, Pancreas: 18.80 ± 10.97 % ID/gm
  Avg % ID/gm, Spleen: 1.39 ± 1.17 % ID/gm
[2]; 4 hrs
  Avg % ID, Carcass: 2.92 ± 0.64 % ID
  Avg % ID, L. Intestine: 6.04 ± 2.05 % ID
  Avg % ID, Liver: 1.57 ± 0.72 % ID
  Avg % ID, Muscle: 0.0 ± 0.00 % ID
  Avg % ID, Tumor: 0.18 ± 0.17 % ID
  Avg % ID/gm, Blood: 0.27 ± 0.02 % ID/gm
  Avg % ID/gm, Liver: 1.44 ± 0.57 % ID/gm
  Avg % ID/gm, Spleen: 1.59 ± 0.27 % ID/gm
  Avg % ID/gm, Stomach: 0.96 ± 0.57 % ID/gm
[2]; 24 hours p.i.
  excretion through the renal pathway: 87 % ID
[2]; 24 hrs
  Avg % ID, Carcass: 1.69 ± 0.56 % ID
  Avg % ID, Heart: 0.00 ± 0.01 % ID
  Avg % ID, Pancreas: 1.19 ± 0.49 % ID
  Avg % ID, Stomach: 0.09 ± 0.02 % ID
  Avg % ID/gm, Blood: 0.10 ± 0.03 % ID/gm
  Avg % ID/gm, Kidney: 1.18 ± 0.14 % ID/gm
  Avg % ID/gm, Lung: 0.09 ± 0.07 % ID/gm
  Avg % ID/gm, Pancreas: 6.78 ± 1.15 % ID/gm
  Avg % ID/gm, S. Intestine: 0.89 ± 0.16 % ID/gm
  Avg % ID/gm, Spleen: 0.46 ± 0.20 % ID/gm
  Avg % ID/gm, Stomach: 0.30 ± 0.05 % ID/gm
[2]; 48 hrs
  Avg % ID, Carcass: 0.57 ± 0.02 % ID
  Avg % ID, Muscle: 0.00 ± 0.00 % ID
  Avg % ID/gm, Spleen: 0.22 ± 0.22 % ID/gm
[2]; 72 hrs
  Avg % ID, Heart: 0.00 ± 0.00 % ID
  Avg % ID, Lung: 0.00 ± 0.00 % ID
  Avg % ID, Muscle: 0.00 ± 0.00 % ID
  Avg % ID/gm, Blood: 0.01 ± 0.02 % ID/gm
  Avg % ID/gm, Heart: 0.01 ± 0.01 % ID/gm
  Avg % ID/gm, Kidney: 0.20 ± 0.02 % ID/gm
  Avg % ID/gm, Muscle: 0.01 ± 0.02 % ID/gm
[3]
  Avg % ID, Blood: 0.66 ± 0.13 % ID
  Avg % ID, Carcass: 5.01 ± 0.47 % ID
  Avg % ID, Liver: 1.02 ± 0.08 % ID
  Avg % ID, Lung: 0.07 ± 0.02 % ID
  Avg % ID/gm, Heart: 0.05 ± 0.02 % ID/gm
  Avg % ID/gm, Kidney: 2.37 ± 0.31 % ID/gm
  Avg % ID/gm, L. Intestine: 2.66 ± 1.07 % ID/gm
  Avg % ID/gm, Lung: 0.31 ± 0.07 % ID/gm
  Avg % ID/gm, S. Intestine: 4.43 ± 0.90 % ID/gm
[4]; 4 hours
  initial tumor uptake retained: 46%
[4]; 24 hours
  initial tumor uptake retained: 28%

## CSCC[C@H](NC(=O)[C@H](CC(C)C)NC(=O)[C@H](Cc1c[nH]cn1)NC(=O)CNC(=O)[C@@H](NC(=O)[C@H](C)NC(=O)[C@H](Cc1c[nH]c2ccccc12)NC(=O)[C@H](CCC(N)=O)NC(=O)CNC(=O)CNC(=O)COC1CSCCCSCCCSCCCSC1)C(C)C)C(N)=O [BBN-98]
[5]; PC-3 cells, read-out: IC50
  IC50: 1 to 6 nM
[6]
  IC50: 1 to 6 nM
[1]
  IC50: 1 to 6 nM

## CSCC[C@H](NC(=O)[C@H](CC(C)C)NC(=O)[C@H](Cc1c[nH]cn1)NC(=O)CNC(=O)[C@@H](NC(=O)[C@H](C)NC(=O)[C@H](Cc1c[nH]c2ccccc12)NC(=O)[C@H](CCC(N)=O)NC(=O)CNC(=O)COC1CSCCCSCCCSCCCSC1)C(C)C)C(N)=O [BBN-99]
[5]; PC-3 cells, read-out: IC50
  IC50: 1 to 6 nM
[6]
  IC50: 1 to 6 nM
[1]
  IC50: 1 to 6 nM

## CSCC[C@H](NC(=O)[C@H](CC(C)C)NC(=O)[C@H](Cc1c[nH]cn1)NC(=O)CNC(=O)[C@@H](NC(=O)[C@H](C)NC(=O)[C@H](Cc1c[nH]c2ccccc12)NC(=O)[C@H](CCC(N)=O)NC(=O)CCCCCCCNC(=O)CN1CCN(CC(=O)O)CCN(CC(=O)O)CCN(CC(=O)O)CC1)C(C)C)C(N)=O [In-DOTA-8-Aoc-BBN[7-14]NH2]
PC-3 cells
  internalization: rapid receptor mediated endocytosis
  retention within cells: remained retained within the cells for a prolonged time period

## CSCC[C@H](NC(=O)[C@H](CC(C)C)NC(=O)[C@H](Cc1c[nH]cn1)NC(=O)CNC(=O)[C@@H](NC(=O)[C@H](C)NC(=O)[C@H](Cc1c[nH]c2ccccc12)NC(=O)[C@H](CCC(N)=O)NC(=O)CCCCNC(=O)COC1CSCCCSCCCSCCCSC1)C(C)C)C(N)=O [RhCl2BBN-37]
[5]; PC-3 cells, read-out: IC50
  IC50: ~7 nM
[5]; Prostate CA, PC-3, read-out: IC50 (Mean Value)
  IC50: 7 nM
[6]
  IC50: ~7 nM
[1]
  IC50: 4.76 ± 0.79 nM

Reference: patent publication US20060067886A1, “Gastrin receptor-avid peptide conjugates” (priority 1997, published 2006)
